Measured values as given in US11872268B2, “Safe and effective beta-lactamase dosing for microbiome protection” (Theriva Biologics, Inc., priority 2015, dated 2024).
Read-outs that look alike come from different tables or passages of the source.

Tests used:
[1] = parameters: species or system human; settings: in vivo
Description: (§1) This example evaluated the effects of two strengths of oral SYN-004 (75 mg or 150 mg) administered twice in six hours on the plasma pharmacokinetics (PK) and chyme concentrations of a single dose of ceftriaxone administered as an intravenous (IV) infusion (1 g infused over 30 minutes). Further, this example evaluated if SYN-004 was present in chyme, if there was absorption of SYN-004 into plasma, and the safety and tolerability of SYN-004 (75 mg or 150 mg) in combination with IV ceftriaxone.
This was a Phase 1, randomized, multi-center, open-label study. Ten otherwise healthy subjects with functioning ileostomies who were between the ages of 18 and 80 years, inclusive, were enrolled. As an overview, in the first treatment period (Period 1) all subjects received an IV infusion of 1 gram (g) ceftriaxone. In the second treatment period (Period 2) all subjects received an IV infusion of 1 g ceftriaxone and 2 doses of either 75 mg or 150 mg of SYN-004, according to the randomization schedule, and administered 30 minutes before and 5.5 hours after the ceftriaxone infusion. Subjects were screened for study participation within 45 days prior to Check-in (Day −1), and the entire duration of the study may be up to 64 days (from Screening to the end-of-study visit).
The active dosage form of SYN-004 being administered was a hard gelatin, size 0, opaque white capsule containing delayed-release mini-pellets. Subjects randomized to Treatment AB received two oral doses of SYN-004 75 mg (1×75 mg capsule) twice in one day on Day 1 of Period 2. Subjects randomized to Treatment AC received two oral doses of SYN-004 150 mg (2×75 mg capsules) twice in one day on Day 1 of Period 2.
Specifically, in Period 1, all subjects received an IV infusion of 1 g ceftriaxone administered over 30 minutes on Day 1. In Period 2, subjects again received an IV infusion of 1 g ceftriaxone administered over 30 minutes on Day 1, as well as two oral doses of SYN-004 (75 mg or 150 mg) 30 minutes before and 5.5 hours after the IV infusion of 1 g ceftriaxone. All subjects received an infusion of ceftriaxone 1 g over 30 minutes in Period 1 and a second identical, time matched infusion in Period 2. The exact time of day of dosing for consecutive subjects may be staggered (±1 hour) to accommodate sample collection logistics; however, the time of day of ceftriaxone administration on Day 1 in Periods 1 and 2 were consistent for each subject.
With respect to meals and fluid intake, on Day 1 in each period, subjects received a small non-fatty meal approximately 1 hour (7:00 AM) prior to administration of ceftriaxone and again 5 hours after the start of infusion (1:00 PM). Subjects received full meals at approximately 2 and 7.5 hours after the start of the infusion (10:00 AM and 3:30 PM), respectively. In order to generate sufficient chyme output, subjects drank 8 ounces of water or apple juice at the start of the infusion and at 0.5, 1, and 1.5 hours after the start of the infusion (i.e., every half hour between 8:00 AM and 9:30 AM); thereafter, subjects were encouraged to drink 8 ounces of water or apple juice hourly between 2 and 7 hours after the start of the infusion (10:00 AM to 3:00 PM).
On Day 1, Period 1, serial blood and chyme samples were collected from approximately 30 minutes pre-dose through approximately 7 hours for serial blood and 8.5 for chyme after the start of infusion for determination of ceftriaxone concentration. […]

[2] = Phase 1b/2a ileostomy study (Example 5): ceftriaxone plasma concentration; format: in vivo, human; settings: 1 g IV with and without oral SYN-004 75 or 150 mg
Description: as §1
This was a Phase 1, randomized, multi-center, open-label study. Ten otherwise healthy subjects with functioning ileostomies who were between the ages of 18 and 80 years, inclusive, were enrolled. […]
Pharmacokinetics: Serial blood (5 mL each) and chyme samples (2 mL minimum) were collected on Day 1 of Period 1 and Period 2. The following PK parameters of SYN-004 and ceftriaxone were determined from the plasma and chyme concentration-time data for all evaluable subjects using non-compartmental methods: maximum observed plasma concentration (Cmax), area under the concentration-time curve from time 0 to the last quantifiable concentration (AUCt), and time to reach Cmax (Tmax) as applicable. In addition, area under the concentration-time curve from time 0 to infinity (AUC∞) was calculated where determinable.

[3] = parameters: species or system human; settings: in vivo, po
Description: (§2) A Phase 1, double blind, randomized, placebo controlled study was carried out to assess the safety, tolerability, and PK of SYN-004 in healthy adult subjects. Specifically, multiple doses of oral SYN-004 capsules (75 mg, 150 mg, or 300 mg) were administered to the subjects at 4 doses per day for 7 days. Blood samples were collected for PK evaluation and determination of anti-SYN-004 antibodies. A total of 24 healthy adult subjects were enrolled in the study with 6 active and 2 placebo subjects per cohort.

[4] = human, in vivo
Description: as §2

[5] = human, in vivo, po
Description: A Phase 1, double blind, placebo controlled study was carried out to assess the safety, tolerability, and pharmacokinetics (PK) of SYN-004 in healthy adult subjects. Specifically, a single dose of oral SYN-004 capsule (75 mg, 150 mg, 300 mg, 600 mg, or 750 mg) was administered to subjects. Blood samples were collected for PK evaluation and determination of anti-SYN-004 antibodies. A total of 40 healthy adult subjects were enrolled in the study with 6 active and 2 placebo subjects per cohort.

[6] = target: SYN-004 (Bacillus licheniformis, UniProt P00808, D288N); experiment: SYN-004 activity in human intestinal chyme in the presence of beta-lactamase inhibitor (ceftriaxone by LC/MS-MS); format: biochemical; settings: 20 mg/ml Sulbactam, 8 ug/ml SYN-004
Description: Ceftriaxone (at 3 ug/ml or 1500 ug/ml) was mixed with human intestinal chyme alone, or with chyme plus SYN-004 (8 ug/ml) or with chyme plus the beta-lactamase inhibitor sulbactam, (20 mg/ml) or chyme plus both and then the samples were flash frozen. The flash frozen samples were thawed on ice and sulbactam was added to some samples, the protein was precipitated with acetonitrile and the samples were analyzed for ceftriaxone concentration by LC/MS-MS. The table below provides results from triplicate samples.

Chain of SYN-004 (P00808 44-307 D288N): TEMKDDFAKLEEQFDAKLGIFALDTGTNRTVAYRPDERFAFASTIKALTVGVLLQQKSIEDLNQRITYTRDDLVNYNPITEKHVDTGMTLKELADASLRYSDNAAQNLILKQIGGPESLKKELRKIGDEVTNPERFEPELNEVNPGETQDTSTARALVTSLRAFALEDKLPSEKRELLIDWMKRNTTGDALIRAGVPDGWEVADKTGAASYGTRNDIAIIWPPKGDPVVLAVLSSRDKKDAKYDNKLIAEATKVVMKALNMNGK

Compound: CO/N=C(\C(=O)N[C@@H]1C(=O)N2C(C(=O)O)=C(CSc3nc(=O)c(=O)[nH]n3C)CS[C@H]12)c1csc(N)n1 [Ceftriaxone]
- time ceftriaxone appeared in the chyme ([1]; human): 1.5 to 2.5 h
- time of second peak of ceftriaxone in chyme ([1]; human): 6 to 8 h
- peak ceftriaxone in chyme ([1]; human, iv): 115 to 1400 µg/mL
- plasma concentration of ceftriaxone, Period 1 versus Period 2 [2]: no significant difference

Compound: SYN-004: beta-lactamase with the amino acid sequence of SEQ ID NO: 1; given orally as delayed-release capsule of enteric-coated pellets
- anti-SYN-004 antibodies [3]: No anti-SYN-004 antibodies were detected
- systemic bioavailability [4]: not systemically bioavailable
- degradation of ceftriaxone in chyme [1]: effectively degraded ceftriaxone
- time measurable SYN-004 began to be detectable in the chyme [1]: 5.5 h
- systemic bioavailability [5]: not systemically bioavailable
- Cmax (plasma) ([5]; 750 mg): 1.4 ng/mL
- Tmax (plasma) ([5]; 750 mg): 1 to 4 h

Compound: CC1(C)[C@H](C(=O)O)N2C(=O)C[C@H]2S1(=O)=O [Sulbactam, sulbactam]
- inhibition of SYN-004 activity in intestinal chyme [6]: did not substantially inhibit SYN-004 activity
